The record followed here is patent US20220064275A1 (SCHOLAR ROCK, published 2022).

Test [1] deals with T1, human LTBP3-proTGFβ1 complex (human, UniProt Q9NS15 866-1039).
T1 construct: range 866-1039; also called hLTBP3-proTGFβ1; hLTBP3
As to the kind of experiment: BLI (Octet). A general note: Biolayer interferometry detects binding as a change in optical thickness at a sensor tip.

The target in test [2] is T2, human LTBP1-proTGFβ1 complex (human, UniProt Q14766 873-1507).
T2 construct: range 873-1507; biotinylated in Octet and MSD-SET; also called hLTBP1-proTGFβ1; hLTBP1
Description: BLI (Octet).

Test [3] deals with T3, human GARP-proTGFβ1 complex (human, UniProt Q14392 20-627; P01137 30-390).
T3 construct: also called hGARP-proTGFβ1; hGARP
As to the kind of experiment: BLI (Octet).

Test [4] addresses T4, human LRRC33-proTGFβ1 complex (human, UniProt Q86YC3 19-650; P01137 30-390).
T4 construct: also called hLRRC33-proTGFβ1; hLRRC33
Description: BLI (Octet).

For test [5], the target named is T5, human mature TGFβ2 growth factor (human, UniProt P61812 303-414).
T5 construct: mature
T5 sequence (looked up): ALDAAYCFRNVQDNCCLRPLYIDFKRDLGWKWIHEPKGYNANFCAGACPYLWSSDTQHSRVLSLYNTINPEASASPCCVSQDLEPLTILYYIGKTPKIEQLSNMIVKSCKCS
Description: in vitro binding assay (BLI protocol at p-1008). As for the experimental part: (§1) AR2G biosensors were first allowed to hydrate in water offline for at least 10 minutes before initiation of the experiment. Upon initiation of the experiment, AR2G tips were equilibrated in water for 1 minute. Then, the tips were moved into a freshly prepared activation solution (18 parts water, 1 part 400 mM EDC (1-Ethyl-3-[3-dimethylaminopropyl] carbodiimide hydrochloride), and 1 part 200 mM sulfo-NHS (N-hydroxysulfosuccinimide)) for 5 minutes. Recombinant TGFβ protein (10 ug/mL in 10 mM sodium acetate buffer pH 5) was coupled to the activated tips for 3 minutes before quenching with ethanolamine pH 8.5 for 15 minutes. […] Finally, a ten minute dissociation was performed.

In test [6] the target is T6, human mature TGFβ3 growth factor (human, UniProt P10600 301-412).
T6 construct: mature
T6 sequence (looked up): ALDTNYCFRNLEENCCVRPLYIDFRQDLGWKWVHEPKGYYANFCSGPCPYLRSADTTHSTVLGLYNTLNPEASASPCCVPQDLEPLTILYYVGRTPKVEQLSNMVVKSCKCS
As to the kind of experiment: in vitro binding assay (BLI protocol at p-1008). How it is done:
as §1

In test [7] the target is T3, human GARP-proTGFβ1 complex. As to the kind of experiment: MSD-SET, solution equilibrium titration. As for the experimental part: (§2) MSD-SET assays were performed to measure affinities of the antibodies at equilibrium. Briefly, each test antibody was diluted 3-5 fold and samples were mixed with biotinylated antigen in a 48-well dish. The SET samples were equilibrated for 20-24 hours at room temperature. Meanwhile, a capture plate was coated with IgG (20 nM) and incubated overnight at 4° C. or 30 minutes at room temperature, followed by a blocking step with 5% BSA. After the capture plate was washed three times, SET samples were added and incubated for 150 seconds. The plate was washed once to remove unbound complexes. 250 ng/ml SA-Sulfotag was added then washed 3 times. 2× Read Buffer was added, and signals from the labeled bound complexes were read with the use of QuickPlex™ SQ 120 instrument.
(§3) As an example, MSD standard plates (MSD) were coated with a 20 nM solution of monoclonal antibody in PBS for 30 min at room temperature or overnight at 4° C. […] After 20-24 hours of equilibration, the antibody-coated plate was blocked with Blocking Buffer A (MSD) for 30 minutes at room temperature and washed with wash buffer (PBS, 0.1% BSA, 0.05% Tween-20) before adding the equilibrated antibody-antigen complexes to the plate for exactly 2.5 minutes. The plate was washed again with wash buffer before adding 250 ng/ml SULFO-TAG-labeled streptavidin secondary reagent (MSD) in PBS with 0.1% BSA. After washing with wash buffer, plates were read in MSD read buffer (MSD) using the MESO QuickPlex SQ 120 (MSD). The binding data were processed by nonlinear curve fitting in Prism 7 software (Graphpad) to calculate equilibrium binding KD values.

In test [8] the target is T7, cynomolgus LRRC33-proTGFβ1 complex (cynomolgus monkey, UniProt A0A7N9CII2 32-663).
T7 construct: also called Cyno LRRC33-proTGFβ1
Description: MSD-SET, solution equilibrium titration. How it is done:
as §2, §3

Another test deals with T8, human proTGFβ1 C4S (human, UniProt P01137 30-390).
T8 construct: Small latent complex without presenting molecule; the cysteine that links to presenting molecules is changed to serine; also called small latent complex proTGFβ1 C4S; latent TGFβ1
As to the kind of experiment: method not described.

Test [9] has as its target T1, human LTBP3-proTGFβ1 complex. As to the kind of experiment: MSD-SET, solution equilibrium titration. As for the experimental part:
as §2, §3

The target of test [10] is T2, human LTBP1-proTGFβ1 complex. Description: MSD-SET, solution equilibrium titration. How it is done:
as §2, §3

Test [11] addresses T3, human GARP-proTGFβ1 complex. As to the kind of experiment: MSD-SET, solution equilibrium titration. As for the experimental part:
as §2, §3
This is another data set of the same source.

The target of test [12] is T9, murine LRRC33-proTGFβ1 complex (mouse, UniProt Q8BMT4 20-651, limits assumed).
T9 construct: also called mLRRC33-proTGFβ1
As to the kind of experiment: MSD-SET, solution equilibrium titration. How it is done: as §2, §3

Test [13] concerns the target T4, human LRRC33-proTGFβ1 complex. Description: MSD-SET, solution equilibrium titration. How it is done:
as §2, §3

In test [14] the target is T10, murine LTBP1-proTGFβ1 complex (mouse, UniProt Q8CG19 339-1712; P04202 30-390, limits assumed).
T10 construct: also called mLTBP1-proTGFβ1
As to the kind of experiment: MSD-SET, solution equilibrium titration. As for the experimental part: as §2, §3

The target of test [15] is T11, murine GARP-proTGFβ1 complex (mouse, UniProt G3XA59 18-628; P04202 30-390).
T11 construct: Soluble murine complex; also called mGARP-proTGFβ1
As to the kind of experiment: MSD-SET, solution equilibrium titration. How it is done:
as §2, §3

In test [16] the target is T12, murine LTBP3-proTGFβ1 complex (mouse, UniProt Q61810 41-1245; P04202 30-390, limits assumed).
T12 construct: also called mLTBP3-proTGFβ1
Description: MSD-SET, solution equilibrium titration. As for the experimental part:
as §2, §3

Test [17] addresses T1, human LTBP3-proTGFβ1 complex. Description: MSD-SET solution equilibrium titration; Ab6 titrated against biotinylated hLTBP3-proTGFβ1, readout % free antigen. How it is done: as §2
As an example, MSD standard plates (MSD) were coated with a 20 nM solution of monoclonal antibody in PBS for 30 min at room temperature or overnight at 4° C. […] After 20-24 hours of equilibration, the antibody-coated plate was blocked with Blocking Buffer A (MSD) for 30 minutes at room temperature and washed with wash buffer (PBS, 0.1% BSA, 0.05% Tween-20) before adding the equilibrated antibody-antigen complexes to the plate for exactly 2.5 minutes. […] After washing with wash buffer, plates were read in MSD read buffer (MSD) using the MESO QuickPlex SQ 120 (MSD). […]

T3 sequence (Q14392 20-627, chain 1 of 2): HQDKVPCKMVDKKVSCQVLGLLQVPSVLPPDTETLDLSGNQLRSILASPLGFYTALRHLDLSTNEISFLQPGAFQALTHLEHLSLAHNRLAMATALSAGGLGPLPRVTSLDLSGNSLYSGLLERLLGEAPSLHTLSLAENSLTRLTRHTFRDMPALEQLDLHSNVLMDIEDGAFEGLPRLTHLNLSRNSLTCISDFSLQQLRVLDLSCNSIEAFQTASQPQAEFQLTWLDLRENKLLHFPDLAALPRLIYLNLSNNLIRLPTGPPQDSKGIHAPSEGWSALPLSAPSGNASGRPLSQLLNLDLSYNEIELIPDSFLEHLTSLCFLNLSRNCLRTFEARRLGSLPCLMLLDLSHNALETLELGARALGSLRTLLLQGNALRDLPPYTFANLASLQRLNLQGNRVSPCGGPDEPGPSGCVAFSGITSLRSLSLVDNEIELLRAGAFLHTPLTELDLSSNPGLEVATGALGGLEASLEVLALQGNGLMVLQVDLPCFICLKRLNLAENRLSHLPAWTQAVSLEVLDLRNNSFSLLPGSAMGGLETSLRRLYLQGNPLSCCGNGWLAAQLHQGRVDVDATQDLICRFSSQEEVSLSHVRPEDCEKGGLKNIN
T3 sequence (P01137 30-390, chain 2 of 2): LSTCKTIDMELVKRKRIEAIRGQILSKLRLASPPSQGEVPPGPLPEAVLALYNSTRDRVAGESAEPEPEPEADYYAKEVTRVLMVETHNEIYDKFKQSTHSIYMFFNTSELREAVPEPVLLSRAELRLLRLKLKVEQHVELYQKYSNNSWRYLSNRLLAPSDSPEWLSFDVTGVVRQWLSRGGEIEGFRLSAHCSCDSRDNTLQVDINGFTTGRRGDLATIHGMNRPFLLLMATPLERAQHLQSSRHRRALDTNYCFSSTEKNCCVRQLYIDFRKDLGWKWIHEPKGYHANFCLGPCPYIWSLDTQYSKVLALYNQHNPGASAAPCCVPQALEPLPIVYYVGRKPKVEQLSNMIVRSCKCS
T1 sequence (Q9NS15 866-1039 limits assumed, chain 1 of 2): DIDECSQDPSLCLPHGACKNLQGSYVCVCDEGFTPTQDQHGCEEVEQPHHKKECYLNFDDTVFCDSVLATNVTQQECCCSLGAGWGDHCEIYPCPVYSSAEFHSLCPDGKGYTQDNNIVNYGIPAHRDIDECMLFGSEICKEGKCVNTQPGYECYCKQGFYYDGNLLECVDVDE
T1 sequence (chain, as listed by the source limits assumed, chain 2 of 2): as the sequence (P01137 30-390, chain 2 of 2) above
T4 sequence (Q86YC3 other isoform, or with tags, fused parts or gaps limits assumed, chain 1 of 2): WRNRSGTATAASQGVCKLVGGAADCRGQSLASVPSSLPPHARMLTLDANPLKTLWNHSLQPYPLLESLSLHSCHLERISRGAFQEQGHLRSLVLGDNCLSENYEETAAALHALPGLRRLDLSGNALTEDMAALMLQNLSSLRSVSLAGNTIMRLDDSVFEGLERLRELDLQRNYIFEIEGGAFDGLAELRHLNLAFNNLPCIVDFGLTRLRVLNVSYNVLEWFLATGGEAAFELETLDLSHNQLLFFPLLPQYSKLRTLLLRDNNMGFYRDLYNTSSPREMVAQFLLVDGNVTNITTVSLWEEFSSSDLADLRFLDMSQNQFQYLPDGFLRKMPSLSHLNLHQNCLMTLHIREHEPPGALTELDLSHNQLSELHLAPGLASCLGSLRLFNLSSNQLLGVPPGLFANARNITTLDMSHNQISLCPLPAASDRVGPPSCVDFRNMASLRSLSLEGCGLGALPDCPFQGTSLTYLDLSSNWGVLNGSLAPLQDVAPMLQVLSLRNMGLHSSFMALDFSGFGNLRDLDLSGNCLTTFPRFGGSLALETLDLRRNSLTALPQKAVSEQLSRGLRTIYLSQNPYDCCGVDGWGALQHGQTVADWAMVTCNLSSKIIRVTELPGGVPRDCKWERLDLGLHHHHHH
T4 sequence (P01137 30-390 limits assumed, chain 2 of 2): as the sequence (P01137 30-390, chain 2 of 2) above
T2 sequence (Q14766 873-1507 limits assumed, chain 1 of 2): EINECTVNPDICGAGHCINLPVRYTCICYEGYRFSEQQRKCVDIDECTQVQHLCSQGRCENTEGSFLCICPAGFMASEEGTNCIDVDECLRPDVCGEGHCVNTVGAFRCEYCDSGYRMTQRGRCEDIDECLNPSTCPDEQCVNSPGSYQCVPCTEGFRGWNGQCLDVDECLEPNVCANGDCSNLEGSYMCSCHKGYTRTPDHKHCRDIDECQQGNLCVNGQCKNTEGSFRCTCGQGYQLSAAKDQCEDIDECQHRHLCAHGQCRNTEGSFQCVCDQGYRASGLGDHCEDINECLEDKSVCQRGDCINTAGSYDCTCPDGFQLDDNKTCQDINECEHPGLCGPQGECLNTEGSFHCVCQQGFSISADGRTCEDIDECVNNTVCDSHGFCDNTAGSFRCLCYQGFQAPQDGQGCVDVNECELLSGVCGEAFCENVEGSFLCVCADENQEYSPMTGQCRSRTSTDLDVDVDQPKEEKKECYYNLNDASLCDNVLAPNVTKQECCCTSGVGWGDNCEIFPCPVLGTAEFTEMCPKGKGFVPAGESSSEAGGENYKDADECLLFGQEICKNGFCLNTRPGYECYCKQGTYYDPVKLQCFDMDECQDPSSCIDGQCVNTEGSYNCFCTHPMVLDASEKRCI
T2 sequence (chain, as listed by the source limits assumed, chain 2 of 2): as the sequence (P01137 30-390, chain 2 of 2) above
T9 sequence (Q8BMT4 20-651 limits assumed, chain 1 of 2): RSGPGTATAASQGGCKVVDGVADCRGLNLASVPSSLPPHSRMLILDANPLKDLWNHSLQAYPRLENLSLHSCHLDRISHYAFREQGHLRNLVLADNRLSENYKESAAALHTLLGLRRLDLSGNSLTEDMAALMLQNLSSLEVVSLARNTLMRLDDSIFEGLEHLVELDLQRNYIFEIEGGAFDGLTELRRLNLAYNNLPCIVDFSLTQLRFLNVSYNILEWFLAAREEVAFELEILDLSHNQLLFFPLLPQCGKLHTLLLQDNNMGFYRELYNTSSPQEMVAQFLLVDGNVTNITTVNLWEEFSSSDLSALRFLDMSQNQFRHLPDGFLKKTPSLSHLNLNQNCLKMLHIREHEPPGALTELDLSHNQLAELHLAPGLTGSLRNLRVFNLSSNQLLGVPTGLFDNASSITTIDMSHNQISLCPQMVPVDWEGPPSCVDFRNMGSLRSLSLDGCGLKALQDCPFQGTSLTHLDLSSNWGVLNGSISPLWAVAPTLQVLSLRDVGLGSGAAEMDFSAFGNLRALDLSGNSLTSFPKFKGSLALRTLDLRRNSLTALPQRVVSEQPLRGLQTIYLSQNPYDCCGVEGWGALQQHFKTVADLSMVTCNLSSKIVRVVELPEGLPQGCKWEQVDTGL
T9 sequence (chain, as listed by the source limits assumed, chain 2 of 2): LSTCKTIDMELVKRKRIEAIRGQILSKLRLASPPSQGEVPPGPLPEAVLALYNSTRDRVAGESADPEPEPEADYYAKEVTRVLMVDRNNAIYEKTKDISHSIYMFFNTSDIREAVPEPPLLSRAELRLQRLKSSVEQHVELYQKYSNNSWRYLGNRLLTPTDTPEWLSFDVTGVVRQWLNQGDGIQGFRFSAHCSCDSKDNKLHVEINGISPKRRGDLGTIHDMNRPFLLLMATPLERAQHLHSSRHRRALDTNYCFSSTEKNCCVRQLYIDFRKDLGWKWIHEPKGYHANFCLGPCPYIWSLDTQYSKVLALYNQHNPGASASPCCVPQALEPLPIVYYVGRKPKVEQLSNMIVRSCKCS
T11 sequence (G3XA59 18-628, chain 1 of 2): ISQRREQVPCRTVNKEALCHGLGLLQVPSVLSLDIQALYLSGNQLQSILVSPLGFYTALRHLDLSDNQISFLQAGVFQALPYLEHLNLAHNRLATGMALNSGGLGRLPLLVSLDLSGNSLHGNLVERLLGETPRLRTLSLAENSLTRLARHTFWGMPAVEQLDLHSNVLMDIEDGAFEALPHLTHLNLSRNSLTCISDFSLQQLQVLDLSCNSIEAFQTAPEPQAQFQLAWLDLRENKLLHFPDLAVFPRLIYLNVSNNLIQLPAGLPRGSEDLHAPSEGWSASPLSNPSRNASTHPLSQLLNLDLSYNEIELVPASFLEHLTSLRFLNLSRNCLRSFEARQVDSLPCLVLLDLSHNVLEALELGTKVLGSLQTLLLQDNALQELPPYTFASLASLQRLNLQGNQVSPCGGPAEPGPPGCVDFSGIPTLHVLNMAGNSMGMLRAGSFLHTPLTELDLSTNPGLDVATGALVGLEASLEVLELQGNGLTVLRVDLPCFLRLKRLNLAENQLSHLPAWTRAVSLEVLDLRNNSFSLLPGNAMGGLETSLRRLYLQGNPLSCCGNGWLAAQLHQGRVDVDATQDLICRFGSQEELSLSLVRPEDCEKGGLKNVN
T8 sequence (P01137 other isoform, or with tags, fused parts or gaps): as the sequence (P01137 30-390, chain 2 of 2) above, with C4S counted along it

B1: Ab6 (antibody, human IgG4 S228P, kappa, V domains shown)
VH: EVQLVESGGGLVQPGGSLRLSCTASGFTFSSFSMDWVRQAPGKGLEWVSYISPSADTIYYADSVKGRFTISRDNAKNTLYLQMNSLRAEDTAVYYCARGVLDYGDMLMPWGQGTLVTVSS
VL: DIQMTQSPSSLSASVGDRVTITCQASQDITNYLNWYQQKPGKAPKLLIYDASNLETGVPSRFSGSGSGTDFTFTISSLQPEDIATYYCQQADNHPPWTFGGGTKVEIKR
Usually Kd stands for the constant that tells how readily two partners part at equilibrium. Low readings indicate higher affinity, high ones lower affinity. B1: the Kd came to 0.123 nM in test [1]; 0.207 nM in test [2]; 0.404 nM in [3]; 0.336 nM in [4]; 0.027 nM in test [7]; 0.093 nM in test [8]. For the same molecule, the Kd in test [9] is 0.029 nM; in [10], 0.018 nM; in [11], 0.027 nM; in [12], 0.048 nM; in test [13], 0.063 nM; in test [14], 0.024 nM. Also, the figures for the Kd in [15] and in test [16] were 0.021 nM and 0.028 nM, respectively. Besides, the figures for the binding result (in test [5]; in [6]; with human proTGFβ1 C4S) were “no binding”, “no binding” and “binds”, respectively. In addition, in test [17], the “IC50 (read off the curve)” value was approximately 0.03 nM.
